From PMC7760338, “One Step Closer to Clinical Translation: Enhanced Tumor Targeting of [^99mTc]Tc-DB4 and [^111In]In-SG4 in Mice Treated with Entresto” (Pharmaceutics, 2020)
Non-standard residues stand in square brackets, D forms with d. Residues, ends and D or L forms follow the SMILES beside them. *: point of attachment. DOTA = O=C(O)CN1CCN(CC(=O)O)CCN(CC(=O)*)CCN(CC(=O)O)CC1; Nle = CCCC[C@H](N)C(=O)O

What was measured:
[1] = test system: SCID mice bearing double A431-CCK2R(+/−) xenografts (CCK2R); assay: in vivo; details: SCID mice with double A431-CCK2R(+/−) xenografts, 4 h pi, 50 kBq/10 pmol peptide iv, γ-counter, mean ± SD, n = 4; for Biodistribution, Stomach: stomach emptied of contents; for Biodistribution, Intestines: intestines not emptied
Description: (§1) Inocula of A431-CCK2R(+) and A431-CCK2R(−) cells (1.5 × 10^7 cells and 1.2 × 10^7 cells respectively, in 150 µL normal saline) were subcutaneously injected in the right and left flanks respectively, of 12 male SCID mice; in 5 more mice, a A431-CCK2R(+) cell suspension (1.5 × 10^7 cells in 150 µL normal saline) was subcutaneously injected instead on the neck of the animals. […] All animals were kept under aseptic conditions during this period and until biodistribution or imaging was conducted.
(§2) For the biodistribution study, animals in groups of 4 received a 100 μL bolus of [^99mTc]Tc-DB4 via the tail vein (200 kBq, corresponding to 10 pmol total peptide in saline/EtOH 9/1 v/v—GRPR-tumor-bearing mice) or [^111In]In-SG4 (50 kBq, 10 pmol total peptide—twin A431-CCK2R(+)/A431-CCK2R(−) tumor-bearing mice) co-injected either with injection solution (100 μL; control) or with LBQ657 solution (100 µL injection solution containing 10 µg LBQ657). In additional sets of animals, mice received, by gavage, a single Entresto dose (12 mg/[…] per animal, prepared as described in Section 2.1.1) 30 min prior to injection of the respective radiotracer together with vehicle (100 μL; Entresto group), or with a [Tyr^4]BBN solution (100 μg in 100 μL vehicle; block group). Mice were euthanized at 4 h pi and dissected. Samples of blood, tumors and organs of interest were collected, weighed and measured for radioactivity in the γ-counter (an automated well-type gamma counter with a NaI(Tl) 3′’ crystal, Canberra Packard Auto-Gamma 5000 series instrument). Intestines and stomach were not emptied of their contents; exceptionally, in the case of [^111In]In-SG4-injected animals, stomachs were emptied of their contents. Data was calculated as percent injected activity per gram tissue (%IA/g) with the aid of standard solutions and represented as mean values ± standard deviation (SD), n = 4.

in vivo = details: male, SCID, mouse, iv, 10 pmol, total radioactivity
Description: as §1, §2

[2] = test system: A431-CCK2R(+) tumor-bearing mice; details: 4 h after injection
Description: Five mice bearing A431-CCK2R(+) xenografts on their shoulders were used for SPECT/CT imaging. Three out of five mice received Entresto by gavage 30 min prior to radiotracer injection. All five animals were injected with a bolus containing [^111In]In-SG4 (100 μL, 5 MBq of HPLC isolated preparation) via the tail vein and were euthanized 4 h later. […] The SPECT system was based on monolithic NaI detectors attached to SiPMs, with a 0.6 mm intrinsic resolution. The CT system was based on a structured CMOS detector of CsI with pixels of 75 µm and operated between 35 and 80 kVp, 10–500 µA tube current, with a 33 µm fixed focal spot size. For SPECT scans, a 60 min duration protocol was applied, based on the injected activity. A CT scan followed after each SPECT scan, according to a General Purpose protocol under 50 kVp for co-registration purposes. The MLEM reconstruction method was applied for the reconstruction of SPECT images with a 250 µm voxel size and 500 iterations. The ISRA reconstruction method with a 100 µm voxel size was applied for the reconstruction of CT images. Images were exported and post-processed on VivoQuant software, version 4.0 (Invicro, Boston, MA, USA). A smoothing median filter (0.6 mm, spherical window) was applied to the images and for consistency purposes, the bladder was removed.

[3] = Entresto: 12 mg/200 mL by gavage 30 min before, co-injected with vehicle
[4] = LBQ657: co-injected with 10 µg LBQ657

CCCC[C@H](NC(=O)[C@H](Cc1c[nH]c2ccccc12)NC(=O)CNC(=O)[C@H](Cc1ccc(O)cc1)NC(=O)[C@H](C)NC(=O)[C@@H](CCC(=O)O)NC(=O)CN1CCN(CC(=O)O)CCN(CC(=O)O)CCN(CC(=O)O)CC1)C(=O)N[C@@H](CC(=O)O)C(=O)N[C@@H](Cc1ccccc1)C(N)=O [[^111In]In-SG4, metal not drawn] ({DOTA}-[dE]AYGW[Nle]DF-NH2)
Biodistribution, Stomach ([1]; Controls: co-injected with vehicle): 1.29 ± 0.25 %IA/g
Biodistribution, Femur [1, 3]: 0.14 ± 0.03 %IA/g
Biodistribution, Kidneys [1, 3]: 2.40 ± 0.61 %IA/g
Biodistribution, Pancreas [1, 3]: 0.34 ± 0.14 %IA/g
Biodistribution, Spleen [1, 3]: 0.22 ± 0.05 %IA/g
Biodistribution, Tumor (+) (A431-CCK2R(+)) [1, 3]: 9.61 ± 1.70 %IA/g
Biodistribution, Tumor (–) (A431-CCK2R(−)) [1, 3]: 0.40 ± 0.23 %IA/g
Biodistribution, Intestines [1, 3]: 0.34 ± 0.07 %IA/g
Biodistribution, Stomach [1, 3]: 2.86 ± 0.53 %IA/g
Biodistribution, Intestines [1, 4]: 0.49 ± 0.12 %IA/g
Biodistribution, Stomach [1, 4]: 3.10 ± 0.41 %IA/g
tissue uptake at 4 h (in vivo; A431-CCK2R(+) tumor): 3.07 ± 0.87 %ID/g
tissue uptake at 4 h (in vivo; A431-CCK2R(−) tumor): 0.28 ± 0.21 %ID/g
tissue uptake at 4 h (in vivo; blood): 0.03 ± 0.02 %ID/g
tissue uptake at 4 h (in vivo; femur): 0.1 ± 0.03 %ID/g
tissue uptake at 4 h (in vivo; heart): 0.05 ± 0.02 %ID/g
tissue uptake at 4 h (in vivo; kidneys): 2.1 ± 0.49 %ID/g
tissue uptake at 4 h (in vivo; liver): 0.15 ± 0.02 %ID/g
tissue uptake at 4 h (in vivo; lungs): 0.06 ± 0.01 %ID/g
tissue uptake at 4 h (in vivo; muscle): 0.03 ± 0.02 %ID/g
tissue uptake at 4 h (in vivo; pancreas): 0.08 ± 0.09 %ID/g
tissue uptake at 4 h (in vivo; spleen): 0.11 ± 0.04 %ID/g
change of tumor uptake on SPECT/CT, Entresto-treated vs controls ([2]; Entresto orally 30 min in advance (3 mice) vs controls (2 mice), A431-CCK2R(+) tumors, 5 MBq iv): notable increase in the tumor uptake
accumulation in A431-CCK2R(+) xenografts on SPECT/CT images ([2]; SCID mice bearing A431-CCK2R(+) tumors, 5 MBq HPLC-isolated iv, five mice): Significant accumulation
